Measured values: the nanobody polyreactivity screen of Harvey et al. (2022)

test: yeast display, Sf9 membrane polyspecificity reagent, FACS + sequencing; frameworks hold sequencing errors
Outline: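 Nanobodies came from a synthetic yeast display library in Saccharomyces cerevisiae BJ5465, induced with galactose for 36–48 hours and stained for 1 hour at 4 °C with 10% biotinylated, detergent-solubilized Sf9 membrane reagent. Cells were enriched on streptavidin microbeads and then FACS-sorted, with low and high (top ~1%) gates set on anti-HA fluorescence for expression and streptavidin fluorescence for reagent binding. Each polyreactivity label reflects the gate a clone came from. Genes were amplified by colony PCR, sequenced by MiSeq 2 × 250 and filtered by CDR length.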

Sequence	polyreactivity (PSR sort gate)
QVQLVESGGGLVQAGGSLRLSCAASGRTFKYNAMGWYRQAPGKERELVAAISNRGGSTYYADSVKGRFTISRDNAKNTVYLQMNSLKPEDTAVYYCAVRAVYRWSSGYGYWGQGTQVTVSS	high polyreactivity
QVQLVESGGGLVQAGGSLRLSCAASGRTFKYNAMGWYRQAPGKERELVAVISYDGSTYYADSVKGRFTISRDNAKNTVYLQMNSLKPEDTAVYYCAARYLDVRPYYYWGQGTQVTVSS	high polyreactivity
QVQLVESGGGLVQAGGSLRLSCAASGRTFKYYAMGWYRQAPGKERELVAAISSGGSTYYADSVKGRFTISRDNAKNTVYLQMNSLKPEDTAVYYCAAYSSYFRRRKWGYDYWGQGTQVTVSS	high polyreactivity
QVQLVESGGGLVQAGGSLRLSCAASGRTFKYYAMGWYRQAPGKERELVAAISWSGSSTNYADSVKGRFTISRDNAKNTVYLQMNSLKPEDTAVYYCAAATYRQFTGTYDYWGQGTQVTVSS	high polyreactivity
QVQLVESGGGLVQAGGSLRLSCAASGRTFKYYAMGWYRQAPGKERELVAGITGRGGGTYYADSVKGRFTISRDNAKNTVYLQMNSLKPEDTAVYYCAAERIYWKYYEYDYWGQGTEVTVSS	high polyreactivity
QVQLVESGGGLVQAGGSLRLSCAASGRTFKYYTMGWYRQAPGKERELVAAISASGGSTYYADSVKGRFTISRDNAKNTVYLQMNSLKPEDTAVYYCAKGANRAIHKQPTRSRLDSWGQGTQVTVSS	high polyreactivity
QVQLVESGGGLVQAGGSLRLSCAASGRTFLFNGMGWYRQAPGKERELVASITRGGSTYADSVKGRFTISRDNAKNTGYVQMNSLNPEDTAVYDCNAYFWFPYNYWGQGTQVTVSS	high polyreactivity
QVQLVESGGGLVQAGGSLRLSCAASGRTFLGYAMGCYRQAPGKERELVATITKRGSSTYYADSVKGRFTISRDNANNTVYLQMTSLKPEDTAVYYCAARRYPRRFAIDYWGQGTQVTVSS	high polyreactivity
QVQLVESGGGLVQAGGSLRLSCAASGRTFLIYAMGWYRQAPGKERELVAAINFSGGNTYYADSVKGRFTISRDNAKNTVYLQMNSLKPEDTAVYYCAARYRIGNNGYEYWGQGTQVTVSS	low polyreactivity
QVQLVESGGGLVQAGGSLRLSCAASGRTFLLNAMGWYRQAPGKERELVAAITRSGVITYYADSVKGRFTISRDNAKNTVYLQMNSLKPEDTAVYYCAAQLRYSYLRPSYYYWGQGTQVTVSS	high polyreactivity
QVQLVESGGGLVQAGGSLRLSCAASGRTFLLYAMGWYRQAPGKERELVAAITWGGGSTYYADSVKGRFTISRDNAKNTVYLQMNSLKPEDTAVYYCAADGSWHGYGYWGQGTQVTVSS	low polyreactivity
QVQLVESGGGLVQAGGSLRLSCAASGRTFLPYAMGWYRQPPWKERELVAAISYRGVSTYYADSVKGRFTISRDNAKYSVYLQMNSLKAEDTAVYYCAARSWANYDFWGHGTQVTVSS	high polyreactivity
QVQLVESGGGLVQAGGSLRLSCAASGRTFLRNAMGWYRPAPGKERELVAAITSSGGRTYYADSVKGRFTISRDNAKNTVYLQMNSLKPEDTAVYYCATDTGWPGRDYWGQGPQVTVSS	high polyreactivity
QVQLVESGGGLVQAGGSLRLSCAASGRTFLRYAMGWYRQAPGKERELVAAITYGGRTNYADSVKGRFTISRDNAKNTVYLQMNSLKPEDTAVYYCAADRTYYYGLRVYYWGQGTQVTVSS	high polyreactivity
QVQLVESGGGLVQAGGSLRLSCAASGRTFLSNAMGWYRQEPGKERELVAAINSGDSTYYAYSVKGRFTISRYNAKNTVYLQMNSLKPEDTAVYYCAAAFYYRRMYYWGKGTQVTVSS	high polyreactivity
QVQLVESGGGLVQAGGSLRLSCAASGRTFLSYAMGWYRQAPGKEREFVASITLSGGSTYYADSVKGRFTISRDNAKNTVYLQMNSLKPEDTAVYYCNAELYWLPYDYWGQGTQVTVSS	low polyreactivity
QVQLVESGGGLVQAGGSLRLSCAASGRTFLSYAMGWYRQAPGKERELVATITRRGGSTYYADSVKGRFTISRDNAKNTVYLQMNSLKPEDTAVYYCAAYYRQYSSSEFGYWGQGTQVTVSS	high polyreactivity
QVQLVESGGGLVQAGGSLRLSCAASGRTFLSYTMGWYRQATGKERELVAAITTSGGSTNYADSVKGRFSISRDTAKNTVYLQMNRLKPEDTAVYYCADEWSVYFNDPRSDYWGQGTQVTVSS	high polyreactivity
QVQLVESGGGLVQAGGSLRLSCAASGRTFLTYAMGWYRQAPGKERELVAAITDGDSTNYADSVKGRFTISRDNAKNTVYLQMNSLKPEDTAVYYCNADSLAYRYYYWGKGTQVTVSS	high polyreactivity
QVQLVESGGGLVQAGGSLRLSCAASGRTFLVNAMGWYRQAPGKERELVAVITRGGSTNYADSVKGRFTISRDNAKNTVYLQMNSLKPEDTAVYYCAAEAYYGLWMDYWGQGTQVTVSS	low polyreactivity
QVQLVESGGGLVQAGGSLRLSCAASGRTFLVYAMGWYRQAPGKDRELVAAISSDGSTHYADSVKGRFTISRDNAKKTVYLQMNSLHPEDTAVYYCARDYYAFSYLYDYWGQGTQVTVSS	low polyreactivity
QVQLVESGGGLVQAGGSLRLSCAASGRTFLVYARGWYRQAPGKERELVATIRASTGSTYADSVKGRFTISRDNAKNTVYLQMNSLKPEDTAVYYCAAQPRYRHQTYNYWGQGTQVTVSS	high polyreactivity
QVQLVESGGGLVQAGGSLRLSCAASGRTFLVYTMGWYRQAPGKERELVAAISWSDGSTYYADSVKGRFTISRDNAKNTVYLQMNSLKPEDTAVYYCAARRTGYLYRYGYWGQGTQVTVSS	low polyreactivity
QVQLVESGGGLVQAGGSLRLSCAASGRTFLWYAMGWYRQAPGKERELVAAITTAGSTYYADSVKGLFTISRDNAKNTVYLLMNSLKPEDTAVYYCNRLTYAYPPPVLGVGHDSWGQGTQVTVSS	low polyreactivity
QVQLVESGGGLVQAGGSLRLSCAASGRTFLWYDMGWYRQAPGKERELVAGITSDGITYYADSVKGRFTISRDNAKNTVNLQMNSLKPEDTAVYYCAADGIYPDAVYFGYPMYYWGQGTQVTVSS	low polyreactivity
QVQLVESGGGLVQAGGSLRLSCAASGRTFLYNAMGWYREAPGTERELVAAISTNGSSTYYADSVKGRFTISRDNAKNTVYLQMNSLKPEDTAVYYCAAQPPLDYEFPYRYGYWGQGTQVTVSS	low polyreactivity
QVQLVESGGGLVQAGGSLRLSCAASGRTFLYNVMGWYRQAPGKERELVAAITSGGRTYYADSVKGRFTISRDNAKNTVYLQMNSLKPEVTAVYYCAADPYFYYYGYDYWGQGTQVTVSS	low polyreactivity
QVQLVESGGGLVQAGGSLRLSCAASGRTFLYYAMGWYRQAPGKERELVAAITWSGGSTYYADSVKGRFTISRDNAKNTVYLQMNSLKPEDTAVYYCAALGWIDWYWQPGMDYWGQGTQVTVSS	high polyreactivity
QVQLVESGGGLVQAGGSLRLSCAASGRTFLYYAMGWYRQAPGKERELVASISTGGSTNYADSVKGRFTISRDNAKNTVYLQMNSLKPEDTAVYYCATEYPYSYFSIAHYHHGYWGQGTQVTVSS	low polyreactivity
QVQLVESGGGLVQAGGSLRLSCAASGRTFMRNAMGLYRQAPGKERELVAAISRSGGSTYYADSVKGRFTISRDNAKNTVYLQMNSLKPEDTAVYYCAADDYGGYYYWGQGTQVTVSS	high polyreactivity
